# Data: US7968297B2, “Method for identification, isolation and production of antigens to a specific pathogen” (Intercell AG, priority 2001, dated 2011)
# B1: ORF2695 (protein, listed as Staphylococcus epidermidis)
# chain: MRYLKKVTIYISLLILTIFIGGCGFINKEDSKETEIKQNFNKMLNVYPTKNLEDFYDKEGFRDEEFDKGDKGTWIIRSEMTKQPKGKIMTSRGMVLYINRNTRTAKGYFLIDEIKDDNSGRPIENEKKYPVKMNHNKIFPTKPISDDKLKKEIENFKFFVQYGDFKNLKDYKDGEISYNPNVPSYSAQYQLNNNDNNVKQLRKRYDIPTNQAPKLLLKGDGDLKGSSVGSKNLEFTFVENKEENIFFTDAVQFTPSEDDES
# Test system: antibodies in human patient sera
# Assay: Western blot reactivity of selected clones with human sera
# Format: binding
# Settings: clone and its aa region are named in the cell; prefix A/B/C = screen the clone came from
# Procedure: For Western blot analysis approximately 10 to 20 μg of total cellular protein was separated by 10% SDS-PAGE and blotted onto HybondC membrane (Amersham Pharmacia Biotech, England). The LamB or FhuA fusion proteins were detected using human serum as the primary antibody at a dilution of 1:5000 and anti human IgG antibodies coupled to HRP at a dilution of 1:5000 as secondary antibodies. Detection was performed using the ECL detection kit (Amersham Pharmacia Biotech, England). Alternatively, rabbit anti FhuA or mouse anti LamB antibodies were used as primary antibodies in combination with the respective secondary antibodies coupled to HRP for the detection of the fusion proteins.
# Subsequent sequencing of a larger number of randomly picked clones (500 to 800 per screen) led to the identification of the gene and the corresponding peptide or protein sequence that was specifically recognized by the human patient serum used for screening. The frequency with which a specific clone is selected reflects at least in part the abundance and/or affinity of the specific antibodies in the serum used for selection and recognizing the epitope presented by this clone. […] All clones that are presented in Table 2 have been verified by Western blot analysis using whole cellular extracts from single clones to show the indicated reactivity with the pool of human serum used in the screen.
# 10 to 30 different human patient sera were subsequently used to evaluate the presence of antibodies against the selected immunogenic peptide sequences that have been discovered in the screen according to the present invention. To eliminate possible cross-reactivity with proteins expressed by E. coli, all sera were pre-adsorbed with a total cellular lysate of E. coli DHa cells expressing FhuA protein.
# This analysis is summarized in Table 2 and as an example shown in FIG. 4 and is indicative of the validity of the present screen.
row,Molecule,Serum reactivity with relevant region (positive/total)
1,B1,A: SEFAH77(22-66): 6/12

# Molecular target: T1, DRA1*0101/DRB1*0401 (Homo sapiens, UniProt P01903+P01911, A100K/A169T/F76Y/I96L/K127E/L162R/M171V/N62H/P40V/Q125Y/R42H/S133A/S149N/S66Y/V115G/V209L/W38E)
# T1 construct: using recombinant soluble versions of HLA class II molecules; made in house; host or cells: SC-2 cells
# Assay: Competition assay with soluble HLA class II molecules
# Design: key: +, + +: binding; +, + +: binding; −: no competition up to 200 μM test peptide
# Settings: binding to soluble DRA1*0101/DRB1*0401 molecules
# Procedure: Binding of peptides to HLA molecules on the surface of antigen-presenting cells is a prerequisite for activation of T cells. Binding was assessed in vitro by two independent biochemical assays using recombinant soluble versions of HLA class II molecules. One assay measures the concentration dependent competitive replacement of a labeled reference peptide by the test peptides. The second assay is based on the formation of SDS-stable complexes upon binding of high- and intermediate affinity ligands.
# Soluble HLA molecules (DRA1*0101/DRB1*0101 and DRA1*0101/DRB1*0401) were expressed in SC-2 cells and purified as described in Aichinger et al., 1997. For the competition assay (Hammer et al. 1995) HLA molecules were applied between 50 and 200 ng/well. For DRB1*0101 biotinilated indicator peptide HA (PKYVKQNTLKLAT—SEQ ID NO:602, Valli et al. 1993) was used at 0.008 μM. […] Molecules, indicator and test peptides were incubated overnight at 37° C., pH 7. HLA:peptide complexes obtained after incubation with serial dilutions of test and reference peptides (the known high-affinity binders HA and UD4 were used as positive control) were captured in ELISA plates coated with antibody L243, which is known to recognize a conformational epitope formed only by correctly associated heterodimers. Incorporated biotin was measured by standard colorimetric detection using a streptavidin-alkaline phosphatase conjugate (Dako) with NBT/BCIP tablets (Sigma) as substrate and automated OD reading on a Victor reader (Wallac).
row,Molecule,binding
1,AGGIFYNQTNQQLLVLCDGMGGHK [p23-47],− (−: no competition up to 200 μM test peptide)
2,ALVFEKSVVIANVGDSRA [p107-124],− (−: no competition up to 200 μM test peptide)
3,FMVEGQRVRTISTYAINNTRCTIF [p395-418],− (−: no competition up to 200 μM test peptide)
4,FPYIPDKAVYNAIVKVVVANIGYEGQ (FPYIPDKAVYNAIVKVVVANIGYEGQY; listed as Staphylococcus aureus) [p620-646],+
5,GESLNIIASRYGVSVDQLMAANNLRG (listed as Staphylococcus aureus) [p96-121],− (−: no competition up to 200 μM test peptide)
6,IKINHFCVVPQINSFKVIPPYGHNS [p226-251],− (−: no competition up to 200 μM test peptide)
7,IKLVSYDTVKDYAYIRFSVSNGTKA [p209-233],+
8,KDYAYIRFSVSNGTKAVKIVSSTHFNN [p218-244],+
9,KEFKSFYSIRKSSLGVASVAISTL [p6-30],+ +
10,KLLVLTMSTLFATQIMNSNHAKASV [p4-29],+
11,MHVPSFQNNTTATHQN [p254-270],+
12,MNYGYGPGVVTSRTISASQA (EMNYGYGPGVVTSRTISASQA; listed as Staphylococcus aureus) [p240-260],+
13,MTLPLMALLALSSIVAFVLPRKRKN [p623-647],− (−: no competition up to 200 μM test peptide)
14,NNLRGYLIMPNQTLQIPNG (NNLRGYLIMPNQTLQIPNGG; listed as Staphylococcus aureus) [p117-136],− (−: no competition up to 200 μM test peptide)
15,PKLRSFYSIRKSTLGVASVIVST (listed as Staphylococcus aureus) [p6-28],+
16,PSLNIKNVNYQYAVPSYSPT (listed as Staphylococcus aureus) [p306-326],+
17,QSWWGLYALLGMLALFIPKFRKESK (listed as Staphylococcus aureus) [p871-896],− (−: no competition up to 200 μM test peptide)
18,TIFRYVEGKSLYE [p416-428],− (−: no competition up to 200 μM test peptide)
19,VIVSTLFLISQHQAQA (VIVSTLFLITSQHQAQA; listed as Staphylococcus aureus) [p24-40],− (−: no competition up to 200 μM test peptide)
20,YDYKYFYSYKVVKGVKKYFSFSQS [p275-299],+
21,YKVVKGVKKYFSFSQSNGYKIG [p284-305],+
